Measurements from US20040152634A1, “Chemokine antagonists and uses thereof” (priority 2002, published 2004).
Read-outs that look alike come from different tables or passages of the source.

Legend:
[1] = target: IL-8 (CXCL8, interleukin 8) (UniProt P10145); experiment: inhibition of 125I-IL-8 binding to neutrophil membranes, (II)
[2] = target: IL-8 (CXCL8, interleukin 8) (UniProt P10145); experiment: inhibition of 125I-IL-8 binding to neutrophil membranes, in the presence of 100 uM ZnCl2
[3] = target: IL-8 (CXCL8, interleukin 8) (UniProt P10145); experiment: inhibition of 125I-IL-8 binding to neutrophil membranes; with 100 uM ZnCl2 against without Zn(II)
[4] = target: T1, extracellular domain of the prolactin receptor (hPRLbp) (Homo sapiens, UniProt P16471); settings: cited from earlier work; for Kd: read-out: Kd, binding to hPRLbp
T1 construct: with the extracellular domain of the prolactin receptor (hPRLbp)
T1 sequence (P16471 25-234 limits assumed): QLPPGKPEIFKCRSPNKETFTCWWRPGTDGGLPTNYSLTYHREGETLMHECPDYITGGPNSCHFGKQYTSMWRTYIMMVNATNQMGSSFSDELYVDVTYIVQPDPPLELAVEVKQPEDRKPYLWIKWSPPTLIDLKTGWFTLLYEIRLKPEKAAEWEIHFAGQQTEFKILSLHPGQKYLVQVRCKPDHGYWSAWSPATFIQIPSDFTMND

IL-8 (CXCL8, interleukin 8), sequence (P10145 28-99 limits assumed): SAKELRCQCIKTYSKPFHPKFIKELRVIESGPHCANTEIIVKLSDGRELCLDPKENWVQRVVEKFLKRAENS

Row | Ki [1] | Ki [2] | fold better inhibition with Zn(II) than in the absence of Zn(II) [3] | Substance | Kd ([4]; in the absence of Zn(II)) | Kd ([4]; in the presence of Zn(II)) | increase of binding affinity with Zn(II) ([4]; presence vs absence of Zn(II))
1 | 141000 nM | 1120 nM | 125 fold | synthetic N-terminal peptide CXCR1 (21-residues in length in which Met 12 was replaced by a His to create a Zn(II) binding site) | – | – | –
2 | – | – | – | hGH: human growth hormone, binds the extracellular domain of the prolactin receptor (hPRLbp) | 270 nM | 0.033 nM | about 8,000 fold
